The text below walks through data of US20240109974A1 (SHANDONG SIMCERE BIOPHARMACEUTICAL, published 2024).

Assay [1] deals with T1, human TNFR2 on the surface of CHO-TNFR2 cells (human, UniProt P20333 23-461).
T1 construct: whole, on cells
T1 sequence (looked up): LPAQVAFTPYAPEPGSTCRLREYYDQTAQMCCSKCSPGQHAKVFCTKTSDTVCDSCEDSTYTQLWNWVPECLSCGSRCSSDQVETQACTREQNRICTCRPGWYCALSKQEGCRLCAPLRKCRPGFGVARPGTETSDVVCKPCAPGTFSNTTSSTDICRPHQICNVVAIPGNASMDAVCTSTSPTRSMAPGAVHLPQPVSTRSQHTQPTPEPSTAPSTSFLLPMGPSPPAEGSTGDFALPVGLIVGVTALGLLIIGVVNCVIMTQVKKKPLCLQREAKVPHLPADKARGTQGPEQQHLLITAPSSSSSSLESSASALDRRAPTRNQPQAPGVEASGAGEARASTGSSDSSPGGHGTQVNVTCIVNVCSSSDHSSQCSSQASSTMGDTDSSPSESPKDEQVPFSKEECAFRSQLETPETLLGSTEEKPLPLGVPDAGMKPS
The experiment in a line: competition flow cytometry on CHO-TNFR2 cells, competitor human TNFα-biotin. As for the experimental part: CHO stable cells highly expressing human TNFR2 were used for the experiment (the same as CHO-TNFR2 in Example 4). The CHO-TNFR2 cells were digested, washed twice with DPBS, then stained with Live/Dead (L/D) (20 minutes at room temperature), and plated at a density of 1×10⁵ cells/50 μl/well. A test anti-TNFR2 antibody was diluted to 6 μg/ml with a staining buffer as the starting concentration: the antibody was subjected to 3.33-fold gradient dilution, with a total of 7 concentration points. The diluted antibody was added to the plated cells at 50 μl/well, and the mixture was mixed well by gentle pipetting, and incubated at 4° C. for 30 minutes. Then the diluted 100 ng/ml of human TNFα-biotin was added at 100 μl/well, and the mixture was mixed well by gentle pipetting, and then incubated at 4° C. for 30 minutes. The mixture was washed twice with a staining buffer, and then 0.12 μg/ml PE-streptavidin (BioLegend, Cat #405204) was added at 100 μl/well; the resulting mixture was incubated at 4° C. for 30 minutes. The mixture was washed twice with a staining buffer, and then 150 μl of staining buffer was added to resuspend the cells; signals were detected by a flow cytometer (Thermo Attune NxT). The inhibitory curve of an antibody was drawn with antibody concentration as the abscissa and corresponding MFI value as the ordinate, and fitted with four parameters (GraphPad Prism9) to calculate the IC50 value. The smaller the IC50 value, the stronger the ability of an antibody to inhibit the binding of human TNFα to human TNFR2. The blocking effect of a humanized antibody was normalized to its corresponding human-murine chimeric WT antibody. The higher the percentage value, the better the inhibitory effect of the humanized antibody.
Background: A flow cytometer gives signals particle by particle.

The target in assay [2] is T2, Cynomolgus TNFR2-His (Sino 90102-C08H) (cynomolgus monkey, UniProt A0A2K5VET2 132-366).
T2 construct: Bought protein; also called cynomolgus monkey TNFR2; recombinant cynomolgus monkey TNFR2 protein; not shown: His tag
T2 sequence: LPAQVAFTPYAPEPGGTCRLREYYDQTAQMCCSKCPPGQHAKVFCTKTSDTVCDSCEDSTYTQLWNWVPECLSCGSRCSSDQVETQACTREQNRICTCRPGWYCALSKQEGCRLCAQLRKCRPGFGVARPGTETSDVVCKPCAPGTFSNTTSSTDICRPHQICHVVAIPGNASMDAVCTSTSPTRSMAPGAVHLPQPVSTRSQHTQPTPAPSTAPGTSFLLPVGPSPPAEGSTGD
Nature of the assay: SPR (Biacore T200), antibody captured on Protein A chip. In short, it runs like this:
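Anti-TNFR2 antibody was captured on a Protein A chip to give Rmax of 50 RU, then TNFR2 was injected at graded concentrations in multi-cycle kinetics. Glycine pH 1.5 regenerated the surface between cycles; KD was obtained by fitting.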
A general note: In SPR one partner is held on a chip, and binding of the other changes the refractive index at the surface.

Assay [3] concerns the target T1, human TNFR2 on the surface of CHO-TNFR2 …. The experiment in a line: flow cytometry on CHO-TNFR2 cells. As for the experimental part: The transfected full-length plasmid of human TNFR2 was purchased from Sino Biological (Cat #HG10417-UT, NCBI Ref Seq: NM_001066.2). The experiment was conducted at a cell density within 80%. The cell medium was discarded; the cells were rinsed with PBS, and digested with 1 ml trypsin for 2 minutes; the digestion was stopped with a Ham's F12 complete medium containing 10% FBS, and then a cell suspension was made. The cell suspension was counted, and then an appropriate amount of cell suspension was centrifuged at 350×g; the supernatant was discarded; a corresponding volume of blocking solution (10% FBS+PBS) at a density of 1×10⁷ cells/ml was added to resuspend the cells, and the mixture was incubated at 4° C. for 30 minutes. After the incubation, the mixture was centrifuged at 350×g to remove the supernatant, and the cells were resuspended in a staining buffer (2% FBS+PBS) to a density of 2×10⁶ cells/ml, and spread onto a 96-well plate, with 50 μl of cell suspension added to each well for later use. The antibody was diluted with PBS for 10-fold gradient dilution from the highest concentration of 20 μg/m (twice the concentration); the diluted antibody was added to the well containing 50 μl of cell suspension, and placed on a microplate shaker for shaking at 500 rpm for 1 minute, so that the antibody was fully mixed with the cells; the mixture was incubated at 4° C. for 1 h. After the incubation, the cells were washed twice with the staining buffer, with 100 μl per well, and centrifuged at 350-g for 5 minutes, and the supernatant was discarded. The PE goat anti-Human IgG Fc antibody (ebioscience, Cat #12-4998-82) was diluted 250-fold with the staining buffer, with a volume of 100 μl per well added to the washed cell wells; the mixture was mixed evenly, and stained at 4° C. for 30 minutes. After the staining, similarly, the cells were washed twice with the staining buffer; finally, the cells were resuspended in 200 μl of staining buffer; signals were detected by a flow cytometer (Thermo Attune NxT). The stronger the signal, the stronger the binding ability of an antibody to TNFR2. The binding curve of an antibody was drawn with antibody concentration as the abscissa and corresponding mean fluorescence intensity (MFI) fold as the ordinate, and fitted with four parameters (GraphPad Prism9) to calculate the EC50 value.

The IC50 is the midpoint of a concentration-inhibition curve. Lower therefore signals higher potency. In general, Kd refers to the equilibrium constant for the complex coming apart. The term koff denotes the rate constant with which the complex falls apart. The low end stands for a long-lived complex, the high end for a short-lived complex. The kon is the second-order rate constant of association. As usually defined, the EC50 is the concentration needed to bring the measured effect to its halfway point. Read a high EC50 as a less potent agent.

B1: 224-Hu1 (antibody, V domains shown)
VH: QVQLVQSGAEVKKPGASVKVSCKASGFNNKDIYMHWVRQAPGQGLEWIGRIDPATGNTKHDPKFQDRVTMTSDTSTNTVYMELSSLRSEDTAVYYCARSPYGDFGAMDYWGQGTLVTVSS
VL: DIQMTQSPSSLSASVGDRVTITCTASSSVSSNYLHWYQQKPGKAPKLWIYSTSNLPSGVPSRFSGSGSGTDFTLTISSLQPEDFATYYCHQYHRSPWTFGQGTKVEIK
notes: Humanized form of #224; also called VH8 + VL6
With B1, in assay [1], the IC50 was 42 ng/mL. Further, in assay [2], the Kd was 3.95 nM, the koff was 0.000953 s⁻¹ and the kon came to 241000 M⁻¹ s⁻¹. In assay [3], this molecule returned an EC50 of 0.04 ng/mL.

B2: 224-Hu6 (antibody, V domains shown)
VH: QVQLVQSGAEVKKPGASVKVSCKASGFNNKDIYMHWVRQAPGQGLEWIGRIDPATGNTKHDPKFQDRVTMTSDTSTNTVYMELSSLRSEDTAVYYCARSPYGDFGAMDYWGQGTLVTVSS
VL: DIQMTQSPSSLSASVGDRVTITCTASSSVSSNYLHWYQQKPGSSPKLWIYSTSNLPSGVPSRFSGSGSGTDFTLTISSLQPEDFATYYCHQYHRSPWTFGQGTKVEIK
notes: Humanized form of #224; also called VH8 + VL7
B2 returned an IC50 in assay [1] of 61 ng/mL. In assay [2], this molecule returned a Kd of 2.63 nM, a koff of 0.000848 s⁻¹ and a kon of 323000 M⁻¹ s⁻¹. In addition, the response in assay [3] was half-maximal at 0.03 ng/mL (EC50).

B3: 219-Hu3 (antibody, V domains shown)
VH: QVQLVQSGAEVKKPGSSVKVSCKASGYSFTNYWMNWVRQAPGQGLEWMGMIHPSDTETRLNQNFKDRVTITADKSTSTAYMELSSLRSEDTAVYYCARGEGLGAARSVSMDYWGQGTLVTVSS
VL: DIQMTQSPSSLSASVGDRVTITCRASQDISNYLNWYQQKPDGTVKLLIYYTAILHSGVPSRFSGSGSGTDYSLTISSLQPEDFATYFCQQGNTLPWTFGQGTKVEIK
notes: also called VH5 + VL5
In assay [1], B3 returned an IC50 of 42 ng/mL. In assay [2], this molecule gave a Kd of 0.723 nM, a koff of 0.000399 s⁻¹ and a kon of 552000 M⁻¹ s⁻¹. In assay [3], this molecule returned an EC50 of 0.018 ng/mL.

B4: 219-Hu2 (antibody, V domains shown)
VH: QVQLVQSGAEVKKPGSSVKVSCKASGYSFTNYWMNWVRQAPGQGLEWMGMIHPSDTETRLNQNFKDKATITADKSTSTAYMELSSLRSEDTAVYYCARGEGLGAARSVSMDYWGQGTLVTVSS
VL: DIQMTQSPSSLSASVGDRVTITCRASQDISNYLNWYQQKPDGTVKLLIYYTAILHSGVPSRFSGSGSGTDYSLTISSLQPEDFATYFCQQGNTLPWTFGQGTKVEIK
notes: also called VH4 + VL5
In assay [1], B4 returned an IC50 of 39 ng/mL. In assay [2], the Kd amounted to 0.681 nM, the koff is 0.000412 s⁻¹ and the kon is 605000 M⁻¹ s⁻¹. This molecule had an EC50 in assay [3] of 0.027 ng/mL.

B5: 219-Hu5 (antibody, V domains shown)
VH: QVQLVQSGAEVKKPGSSVKVSCKASGYSFTNYWMNWVRQAPGQGLEWMGMIHPSDTETRLNQNFKDRVTITVDKSTSTAYMELSSLRSEDTAVYYCARGEGLGAARSVSMDYWGQGTLVTVSS
VL: DIQMTQSPSSLSASVGDRVTITCRASQDISNYLNWYQQKPDGTVKLLIYYTAILHSGVPSRFSGSGSGTDYSLTISSLQPEDFATYFCQQGNTLPWTFGQGTKVEIK
notes: also called VH7 + VL5
B5: the IC50 in assay [1] was determined as 39 ng/mL. In assay [2], this molecule registered a Kd of 0.626 nM, a koff of 0.000381 s⁻¹ and a kon of 608000 M⁻¹ s⁻¹. Further, a half-maximal effect in assay [3] (EC50) was put at 0.018 ng/mL.

B6: 219-Hu4 (antibody, V domains shown)
VH: QVQLVQSGAEVKKPGSSVKVSCKASGYSFTNYWMNWVKQAPGQGLEWIGMIHPSDTETRLNQNFKDKATLTVDKSTSTAYMELSSLRSEDTAVYYCARGEGLGAARSVSMDYWGQGTLVTVSS
VL: DIQMTQSPSSLSASVGDRVTITCRASQDISNYLNWYQQKPDGTVKLLIYYTAILHSGVPSRFSGSGSGTDYSLTISSLQPEDFATYFCQQGNTLPWTFGQGTKVEIK
notes: also called VH6 + VL5
In the case of B6, the IC50 in assay [1] was 43 ng/mL. In assay [2], this molecule yielded a Kd of 0.576 nM, a koff of 0.000389 s⁻¹ and a kon of 675000 M⁻¹ s⁻¹. Moreover, in assay [3], the response was half-maximal at 0.018 ng/mL (EC50).

B7: 219-Hu1 (antibody, V domains shown)
VH: QVQLVQSGAEVKKPGASVKVSCKASGYSFTNYWMNWVRQAPGQRLEWMGMIHPSDTETRLNQNFKDRVTITRDTSASTAYMELSSLRSEDTAVYYCARGEGLGAARSVSMDYWGQGTLVTVSS
VL: DIQMTQSPSSLSASVGDRVTITCRASQDISNYLNWYQQKPDGTVKLLIYYTAILHSGVPSRFSGSGSGTDYSLTISSLQPEDFATYFCQQGNTLPWTFGQGTKVEIK
notes: also called VH3 + VL5
B7 registered an IC50 in assay [1] of 47 ng/mL. In assay [2], this molecule gave a Kd of 0.532 nM, a koff of 0.000332 s⁻¹ and a kon of 623000 M⁻¹ s⁻¹. For the same molecule, the EC50 in assay [3] was determined as 0.026 ng/mL.

B8: 001-Hu3 (antibody, V domains shown)
VH: EVQLVESGGGLVQPGGSLRLSCAASGFAFSTYDLSWVRQAPGKGLEWVAYINNGGISTYYSDTVKGRFTISRDNAKNTLYLQMNSLRAEDTAVYYCVRGPFYGSANYFDYWGQGTLVTVSS
VL: DIQMTQSPSSLSASVGDRVTITCRTSESIYSNLPWYQQKPGKAPKLLIYDATKLAEGVPSRFSGSGSGTDYTLTISSLQPEDFATYYCQHFWVTPWTFGQGTKVEIK
notes: Humanized form of #001; also called VH1 + VL3
Consider B8, for which the IC50 in assay [1] came to 85 ng/mL. In addition, in assay [2], the dissociation constant Kd came to 0.43 nM, the koff was found to be 0.000155 s⁻¹ and the kon came out at 361000 M⁻¹ s⁻¹. Further, in assay [3], the EC50 was found to be 0.035 ng/mL.

B9: 001-Hu4 (antibody, V domains shown)
VH: EVQLVESGGGLVQPGGSLRLSCAASGFAFSTYDLSWVRQAPGKGLEWVAYINNGGISTYYSDTVKGRFTISRDNAKNSLYLQMNSLRAEDTAVYYCVRGPFYGSANYFDYWGQGTLVTVSS
VL: DIQMTQSPSSLSASVGDRVTITCRTSESIYSNLPWYQQKPGKSPKLLVYDATKLAEGVPSRFSGSGSGTDYTLTISSLQPEDFATYYCQHFWVTPWTFGQGTKVEIK
notes: Humanized form of #001; also called VH2 + VL4
On to B9, for which, in assay [1], the half-inhibitory concentration (IC50) amounted to 87 ng/mL. In assay [2], this molecule registered a Kd of 0.473 nM, a koff of 0.000167 s⁻¹ and a kon of 354000 M⁻¹ s⁻¹. In assay [3], this molecule showed an EC50 of 0.027 ng/mL.
